Key:
[1] = biological target: T1, CD34, native glycoprotein from human HSPCs (KG1a, CD34^pos-BM, CD34^pos-UCB, CD34^pos-AML) (human, UniProt P28906 32-385, native glycosylation (about 120-130 kDa form); sialylated O-glycans and tyrosine sulfation are shown to matter for selectin binding); assay: SPR; CD34 captured from KG1a lysate on 563-mAb, E-Ig injected (3.9-2000 nM), 150 mM NaCl; steady-state model; mean ± SEM
T1 construct: mature; also called E-selL CD34
T1 sequence (looked up): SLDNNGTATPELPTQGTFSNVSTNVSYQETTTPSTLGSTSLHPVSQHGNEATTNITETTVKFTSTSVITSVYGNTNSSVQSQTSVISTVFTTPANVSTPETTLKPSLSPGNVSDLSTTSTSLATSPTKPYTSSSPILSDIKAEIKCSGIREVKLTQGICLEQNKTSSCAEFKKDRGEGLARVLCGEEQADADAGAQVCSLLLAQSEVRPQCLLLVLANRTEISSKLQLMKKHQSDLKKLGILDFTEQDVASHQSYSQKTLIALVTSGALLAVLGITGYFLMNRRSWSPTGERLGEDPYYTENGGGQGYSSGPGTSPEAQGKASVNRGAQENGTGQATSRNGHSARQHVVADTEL

[2] = biological target: T2, CD43, native glycoprotein from KG1a cells (human, UniProt P16150 20-400, native glycosylation); assay: SPR; CD43 captured from KG1a lysate on polyclonal CD43 Ab, E-Ig injected, 150 mM NaCl; apparent rate constant; 1st experiment
T2 construct: mature
T2 sequence (looked up): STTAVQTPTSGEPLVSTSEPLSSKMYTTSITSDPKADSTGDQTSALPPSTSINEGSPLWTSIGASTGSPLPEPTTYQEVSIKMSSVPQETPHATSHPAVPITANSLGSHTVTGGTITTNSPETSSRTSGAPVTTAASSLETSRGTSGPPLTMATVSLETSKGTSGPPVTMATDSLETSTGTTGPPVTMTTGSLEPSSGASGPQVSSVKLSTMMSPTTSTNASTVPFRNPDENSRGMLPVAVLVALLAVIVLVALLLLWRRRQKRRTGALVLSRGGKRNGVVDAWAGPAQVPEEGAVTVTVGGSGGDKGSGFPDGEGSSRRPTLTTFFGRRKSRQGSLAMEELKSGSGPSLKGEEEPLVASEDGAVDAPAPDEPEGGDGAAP

[3] = biological target: CD44 (HCELL), native glycoprotein from human HSPCs (KG1a, CD34^pos fraction) (human) (UniProt P16070); assay: SPR; CD44 captured from KG1a lysate on Hermes-3-mAb, E-Ig injected (3.9-2000 nM), 150 mM NaCl; steady-state model; 2nd experiment
CD44 (HCELL), native glycoprotein from human HSPCs (KG1a, CD34^pos fraction) (human), sequence (P16070 21-742): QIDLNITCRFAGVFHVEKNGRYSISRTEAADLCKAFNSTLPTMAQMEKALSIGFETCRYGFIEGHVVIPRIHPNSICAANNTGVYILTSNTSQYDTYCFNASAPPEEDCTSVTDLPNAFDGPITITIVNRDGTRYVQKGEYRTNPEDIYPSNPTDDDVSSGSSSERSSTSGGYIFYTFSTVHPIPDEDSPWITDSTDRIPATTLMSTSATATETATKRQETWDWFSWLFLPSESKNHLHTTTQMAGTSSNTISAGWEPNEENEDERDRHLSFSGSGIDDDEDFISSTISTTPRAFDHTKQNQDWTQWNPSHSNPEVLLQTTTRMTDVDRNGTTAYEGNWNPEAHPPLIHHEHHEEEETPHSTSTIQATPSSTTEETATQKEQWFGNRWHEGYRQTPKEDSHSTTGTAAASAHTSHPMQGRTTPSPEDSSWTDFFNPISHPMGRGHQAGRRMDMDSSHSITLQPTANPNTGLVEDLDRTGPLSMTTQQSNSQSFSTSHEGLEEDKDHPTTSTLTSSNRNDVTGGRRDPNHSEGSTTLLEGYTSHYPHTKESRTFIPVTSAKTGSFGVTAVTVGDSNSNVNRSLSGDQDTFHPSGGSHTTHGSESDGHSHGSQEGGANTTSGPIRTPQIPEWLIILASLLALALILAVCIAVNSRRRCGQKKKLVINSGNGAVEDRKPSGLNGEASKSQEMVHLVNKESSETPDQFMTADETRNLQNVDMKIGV

[4] = biological target: CD44 (HCELL), native glycoprotein from human HSPCs (KG1a, CD34^pos fraction) (human) (UniProt P16070); assay: SPR; CD44 captured from KG1a lysate on Hermes-3-mAb, E-Ig injected, 150 mM NaCl; apparent rate constant; 2nd experiment
[5] = biological target: T3, PSGL-1, native glycoprotein from human HSPCs (KG1a, CD34^pos-BM) (human, UniProt Q14242 42-412, native glycosylation and tyrosine sulfation); assay: SPR; PSGL-1 captured from KG1a lysate on KPL-1-mAb, E-Ig injected, 150 mM NaCl; apparent rate constant; 3rd experiment
T3 construct: mature; also called P-selectin glycoprotein ligand-1
T3 sequence (looked up): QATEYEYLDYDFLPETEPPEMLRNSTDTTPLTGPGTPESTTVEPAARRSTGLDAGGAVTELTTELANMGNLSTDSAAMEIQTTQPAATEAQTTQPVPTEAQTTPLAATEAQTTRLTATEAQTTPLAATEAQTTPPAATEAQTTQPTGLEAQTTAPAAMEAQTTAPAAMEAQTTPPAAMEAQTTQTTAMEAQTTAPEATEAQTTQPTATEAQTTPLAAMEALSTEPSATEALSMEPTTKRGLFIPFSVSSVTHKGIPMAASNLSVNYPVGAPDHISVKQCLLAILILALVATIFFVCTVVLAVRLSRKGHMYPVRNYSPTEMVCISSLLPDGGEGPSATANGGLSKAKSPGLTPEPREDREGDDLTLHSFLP

[6] = biological target: T1, CD34, native glycoprotein from human …; assay: SPR; CD34 captured from KG1a lysate on 563-mAb, E-Ig injected, 150 mM NaCl; apparent rate constant; 2nd experiment
[7] = biological target: CD44 (HCELL), native glycoprotein from human HSPCs (KG1a, CD34^pos fraction) (human) (UniProt P16070); assay: SPR; CD44 captured from KG1a lysate on Hermes-3-mAb, E-Ig injected, 150 mM NaCl; apparent rate constant; 3rd experiment
[8] = biological target: CD44 (HCELL), native glycoprotein from human HSPCs (KG1a, CD34^pos fraction) (human) (UniProt P16070); assay: SPR; CD44 captured from KG1a lysate on Hermes-3-mAb, E-Ig injected, 150 mM NaCl; apparent rate constant; 1st experiment
[9] = biological target: T1, CD34, native glycoprotein from human …; assay: SPR; CD34 captured from CD34^pos-BM lysate on 563 mAb; apparent rate constant, estimate
[10] = biological target: CD44 (HCELL), native glycoprotein from human HSPCs (KG1a, CD34^pos fraction) (human) (UniProt P16070); assay: SPR; CD44 captured from KG1a lysate on Hermes-3-mAb, E-Ig injected (3.9-2000 nM), 150 mM NaCl; steady-state model; mean ± SEM
[11] = biological target: CD44 (HCELL), native glycoprotein from human HSPCs (KG1a, CD34^pos fraction) (human) (UniProt P16070); assay: SPR, from the binding isotherm; CD44 captured from KG1a lysate

B1: recombinant E-selectin human immunoglobulin chimeric protein (Fc fusion)
chain: WSYNTSTEAMTYDEASAYCQQRYTHLVAIQNKEEIEYLNSILSYSPSYYWIGIRKVNNVWVWVGTQKPLTEEAKNWAPGEPNNRQKDEDCVEIYIKREKDVGMWNDERCSKKKLALCYTAACTNTSCSGHGECVETINNYTCKCDPGFSGLKCEQIVNCTALESPEHGSLVCSHPLGNFSYNSSCSISCDRGYLPSSMETMQCMSSGEWSAPIPACNVVECDAVTNPANGFVECFQNPGSFPWNTTCTFDCEEGFELMGAQSLQCTSSGNWDNEKPTCKAVTCRAVRQPQNGSVRCSHSPAGEFTFKSSCNFTCEEGFMLQGPAQVECTTQGQWTQQIPVCEAFQCTALSNPERGYMNCLPSASGSFRYGSSCEFSCEQGFVLKGSKRLQCGPTGEWDNEKPTCEAVRCDAVHQPPKGLVRCAHSPIGEFTYKSSCAFSCEEGFELHGSTQLECTSQGQWTEEVPSCQVVKCSSLAVPGKINMSCSGEPVFGTVCKFACPEGWTLNGSAARTCGATGHWSGLLPTCEAPTESNIP
Q: What does the source list for B1?
A: Kd [1]: 237 nM; koff [2]: 0.00048 s⁻¹; kon [2]: 944 M⁻¹ s⁻¹; Kd [3]: 252 nM; koff [4]: 0.0002 s⁻¹; kon [4]: 794 M⁻¹ s⁻¹; koff [5]: 0.000262 s⁻¹; kon [5]: 1140 M⁻¹ s⁻¹; koff [6]: 0.00016 s⁻¹; kon [6]: 597 M⁻¹ s⁻¹; koff [7]: 0.000273 s⁻¹; kon [7]: 1280 M⁻¹ s⁻¹; koff [8]: 0.00011 s⁻¹; kon [8]: 641 M⁻¹ s⁻¹; kon [9]: ~728 M⁻¹ s⁻¹; Kd [10]: 233 nM; % E-Ig binding assuming 1:1 stoichiometry [11]: 23%

Reference: patent publication US20200199533A1 (KING ABDULLAH UNIVERSITY OF SCIENCE AND TECHNOLOGY, published 2020)
